In assay [1] the target is T1, virus-like particles (VLPs) of BK polyomavirus VP-1 protein, serotype Ia (BK virus (BKPyV), serotype Ia, UniProt P03088 1-361).
T1 construct: self-assembled native VLPs coated on ELISA plates; also called VLP Ia; BKV VP-1, serotype Ia
T1 chain: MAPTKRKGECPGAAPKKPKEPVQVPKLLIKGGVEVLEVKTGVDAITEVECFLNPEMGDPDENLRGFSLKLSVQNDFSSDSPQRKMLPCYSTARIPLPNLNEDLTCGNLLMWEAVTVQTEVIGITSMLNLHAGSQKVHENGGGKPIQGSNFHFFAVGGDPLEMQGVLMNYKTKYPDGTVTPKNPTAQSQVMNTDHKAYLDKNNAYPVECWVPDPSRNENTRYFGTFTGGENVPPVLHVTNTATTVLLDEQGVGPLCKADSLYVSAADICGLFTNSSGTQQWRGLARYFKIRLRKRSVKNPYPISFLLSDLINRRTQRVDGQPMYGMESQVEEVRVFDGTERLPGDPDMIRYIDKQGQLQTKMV
Description: ELISA on coated VLP; supernatant 1/40. For orientation: An ELISA detects its analyte on a solid surface through an enzyme-linked reagent.
Description: (§1) To do this, the VLPs produced were deposited at a concentration of 1 μg/mL in PBS and incubated overnight at +4° C. The wells were then blocked for 1 h at +37° C. with a PBS/FCS (phosphate-buffered saline/fetal calf serum) mixture. After dilution in a dilution buffer containing FCS, PBS and Tween® 20, the various hybridoma culture supernatants were added for 1 h at +37° C. The wells were washed four times in a row with Wash Buffer and a secondary anti-mouse antibody coupled to peroxidase was added to the 1:2000 dilution for 1 h at +37° C. The wells were washed four more times and the substrate (OPD (ortho phenylene diamine)+H₂O₂) was added for 30 min at room temperature. A stop solution (H₂SO₄ 4N) was then added and each well was read by measuring the absorbance at 492 nm with a spectrophotometer. The value obtained for the average of the control wells (PBS in the first step) is subtracted from the optical density values obtained for each well.

The target in assay [2] is T2, virus-like particles (VLPs) of BK polyomavirus VP-1 protein, serotype Ib2 (BK virus (BKPyV), serotype Ib2, PA …, UniProt P03088 1-362).
T2 construct: native VLPs; also the immunogen; also called VLP Ib2; BK Ib2
T2 chain: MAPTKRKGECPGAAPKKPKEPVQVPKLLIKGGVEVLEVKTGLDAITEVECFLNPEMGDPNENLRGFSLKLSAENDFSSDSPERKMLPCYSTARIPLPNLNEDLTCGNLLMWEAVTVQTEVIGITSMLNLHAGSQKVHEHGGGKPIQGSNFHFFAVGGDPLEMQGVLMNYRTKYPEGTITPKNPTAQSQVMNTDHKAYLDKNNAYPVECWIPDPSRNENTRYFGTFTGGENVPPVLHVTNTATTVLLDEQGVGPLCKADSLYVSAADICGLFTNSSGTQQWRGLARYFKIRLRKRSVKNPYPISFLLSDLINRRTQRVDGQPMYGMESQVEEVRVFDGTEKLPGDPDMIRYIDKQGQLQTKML
In words: ELISA on coated VLP; supernatant 1/40.
Description: as §1

The target of assay [3] is T3, virus-like particles (VLPs) of BK polyomavirus VP-1 protein, serotype II (BK virus (BKPyV), serotype II, UniProt P14996 1-362).
T3 construct: native VLPs; also called VLP II
T3 chain: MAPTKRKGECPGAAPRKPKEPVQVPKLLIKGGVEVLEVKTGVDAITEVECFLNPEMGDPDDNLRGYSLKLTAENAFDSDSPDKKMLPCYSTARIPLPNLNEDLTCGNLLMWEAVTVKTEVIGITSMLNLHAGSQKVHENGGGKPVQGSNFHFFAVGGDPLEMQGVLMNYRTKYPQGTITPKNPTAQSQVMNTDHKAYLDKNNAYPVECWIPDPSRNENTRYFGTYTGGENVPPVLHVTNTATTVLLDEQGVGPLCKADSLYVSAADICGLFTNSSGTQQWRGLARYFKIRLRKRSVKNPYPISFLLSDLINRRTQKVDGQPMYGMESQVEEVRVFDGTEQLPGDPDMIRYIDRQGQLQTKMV
In words: ELISA on coated VLP; supernatant 1/40.
Description: as §1

Assay [4] has as its target T4, virus-like particles (VLPs) of BK polyomavirus VP-1 protein, serotype IV (BK virus (BKPyV), serotype IV, UniProt P14996 1-362).
T4 construct: native VLPs; also called VLP IV
T4 chain: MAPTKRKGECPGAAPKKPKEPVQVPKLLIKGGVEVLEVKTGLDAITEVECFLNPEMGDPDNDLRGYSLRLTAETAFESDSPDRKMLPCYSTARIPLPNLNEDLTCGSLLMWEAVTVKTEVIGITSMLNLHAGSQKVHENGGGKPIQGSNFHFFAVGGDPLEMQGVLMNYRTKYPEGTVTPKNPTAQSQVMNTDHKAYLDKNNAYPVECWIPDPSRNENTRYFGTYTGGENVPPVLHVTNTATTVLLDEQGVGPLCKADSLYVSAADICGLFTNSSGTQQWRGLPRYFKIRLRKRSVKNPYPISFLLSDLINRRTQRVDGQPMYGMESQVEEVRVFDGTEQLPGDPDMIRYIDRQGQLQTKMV
In words: ELISA on coated VLP; supernatant 1/40.
Description: as §1

Assay [5] has as its target T1, virus-like particles (VLPs) of BK …. In words: ELISA on coated VLP; supernatant 1/320.
Description: as §1
The target in assay [6] is T2, virus-like particles (VLPs) of BK …. Description: ELISA on coated VLP; supernatant 1/320.
Description: as §1
The target in assay [7] is T3, virus-like particles (VLPs) of BK …. Description: ELISA on coated VLP; supernatant 1/320.
Description: as §1
The target in assay [8] is T4, virus-like particles (VLPs) of BK …. Description: ELISA on coated VLP; supernatant 1/320.
Description: as §1
Assay [9] concerns the target T1, virus-like particles (VLPs) of BK …. In words: ELISA on coated VLP; supernatant 1/1 280.
Description: as §1
Assay [10] shares this target. Description: ELISA on coated VLP; supernatant 1/10 240.
Description: as §1
Assay [11] concerns the target T2, virus-like particles (VLPs) of BK …. In words: ELISA on coated VLP; supernatant 1/10 240.
Description: as §1
Assay [12] deals with T3, virus-like particles (VLPs) of BK …. Description: ELISA on coated VLP; supernatant 1/10 240.
Description: as §1
In assay [13] the target is T4, virus-like particles (VLPs) of BK …. In words: ELISA on coated VLP; supernatant 1/10 240.
Description: as §1

B1: monoclonal antibody ‘H6’ secreted by clone BK6A2H6 (antibody, V domains shown)
VH: EVQLQQSGPELVKPGASVKISCKASGYSFTGYFMNWVKQSHGKSLEWIGRINPYNGDTFYNQKFKGKATLTVDKSSSTAHMELLSLTSEDSAVYYCGSYYYGDYFDYWGQGTTLTVSS
VL: SIVMTQIPKFLLVSEGDRVTITCKASQSVSNDVAWYQQKSGQSPKLLIYYASNRYTGVPDRFTGSGYGTDFTFTISTVQAEDLAVYFCQQDYSSPLTFGAGTKLELKR
For the molecule B1, the “OD 492 nm” value in [1] turned out to be 3.18 OD; in assay [2], 0.67 OD; in assay [3], 0.44 OD; in assay [4] it was 3.38 OD; in assay [5] it was 3.03 OD; in [6], 0.29 OD. For the same molecule, the “OD 492 nm” value is 0.13 OD in assay [7]; 2.66 OD in assay [8]; 0.81 OD in assay [9]; 0.22 OD in assay [10]; 0.06 OD in [11]; 0.06 OD in [12]. Moreover, the “OD 492 nm” value in assay [13] turned out to be 0.17 OD.

B2: monoclonal antibody ‘F6’ secreted by clone BK6A2F6 (antibody)
heavy: EVQLQQSGPELVKPGASVKISCKASGYSFTGYFMNWVKQSHGKSLEWIGRINPYNGDTFYNQKFKGKATLTVDKSSSTAHMELLSLTSEDSAVYYCGSYYYGDYFDYWGQGTTLTVSSAKTTPPSVYPLAPGSAAQTNSMVTLGCLVKGYFPEPVTVTWNSGSLSSGVHTFPAVLQSDLYTLSSSVTVPSSTWPSETVTCNVAHPASSTKVDKKIVPRDCGCKPCICTVPEVSSVFIFPPKPKDVLTITLTPKVTCVVVDISKDDPEVQFSWFVDDVEVHTAQTQPREEQFNSTFRSVSELPIMHQDWLNGKEFKCRVNSAAFPAPIEKTISKTKGRPKAPQVYTIPPPKEQMAKDKVSLTCMITDFFPEDITVEWQWNGQPAENYKNTQPIMDTDGSYFVYSKLNVQKSNWEAGNTFTCSVLHEGLHNHHTEKSLSHSPGK
light: […]
For B2, the “OD 492 nm” value in assay [1] is 3.16 OD; in assay [2], 1.03 OD; in assay [3], 0.9 OD; in assay [4], 3.19 OD; in assay [5], 3.16 OD; in assay [6], 0.29 OD. The “OD 492 nm” value turned out to be 0.16 OD in [7]; 3.16 OD in [8]; 2.11 OD in assay [9]; 0.19 OD in assay [10]; 0.08 OD in assay [11]; 0.08 OD in assay [12]. In addition, the “OD 492 nm” value in [13] came to 0.48 OD.

(Values after US20220396612A1 (UNIVERSIT DE TOURS, published 2022).)
